Test results taken from the domain aggregation screens of Martell et al. (2025).

assay: soluble fraction after stress (log2 fold change); higher = more stays soluble; pooled small domains, quantitative proteomics; conditions: stress: 75 degC
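Note: 20 min heating vs room temperature control held 20 min.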

| Sequence | soluble fraction (log2) |
| --- | --- |
| HMDEDTWKLYKRAYKKYYARYMKGNMSEEAFKTWAAQAARDRDAAIEQVKAALDENLKAQVIERLKEELNR | -0.831 |
| HMDEEEKGEVEVPNLIGLTRKEAKKTLEEEGLLIETKESLKTNLDDEYEKIKSQLPKAGIKIKQGSTVYVD | 0.154 |
| HMDEGQEHYVKETDLPFYSEADPASSVIFPLVLNQKLIEKERKDDWIRALEPTTGLVGWVLLKSLSPQQLS | -0.0643 |
| HMDEIELLLQDAIQKLPEKQRMVFTLRYYDNLPYEEISKILDMSVSTLKTNYHYAKSKIEQYILDHS | -1.64 |
| HMDEKPPHEALSNREFQVLQLLAQGRSVGQIAQQLTLSANTISTYRARIFDKLGLHNPADLFSYAARHRLT | -1.19 |
| HMDELNFGNFEGTRIFVQRTARKKSIALSIRDGTIVILAPRHIPNQEIQELITTNTDWIRAKLSQHAETKR | -3.21 |
| HMDELVYVPNITGKTVEEARTELQKRDLGLNIAGHQFSDEFGKGRIISQDPAAGSRLKVNRSISVIVSSGQ | 0.0849 |
| HMDENVVLRKVAREAFVIEYVRGIRAIDPGIGGPKLWLMYKREFGDNDTVGRDTFEDILDRNNLKVRI | -4.06 |
| HMDEPADVAIFDGFRQMSEDELKKLYESLNLAMTFKDFLHIQNYFKNEENREPSVTEIRVLDTYWSDH | 0.0441 |
| HMDEPVDRLSPREQEVLALMAEGRSNAAIAHRLSITEKAVAKHINSIFTKLDLPLDEDDHRRVRAVLAWLR | -1.33 |
| HMDESIPVITYKDSVYANPKAFADAHKLPYKSLHNALSKARKEGKVRFMYKQYNFHLDNNGYIVAVS | -1.22 |
| HMDESLLDYALREIKARIQNGTYPPGTKLSTQEISDSLGISRTPVVAAINRLVAQGVAEAIPRRGTIVAR | -0.19 |
| HMDETFTITFDPNGGTLNGSKTKTVSLGDIVYGKLPTASKTGYSFIGWFTEKEGGEQISSATKIIASDLTL | 0.0518 |
| HMDETPESIFAKANELYPKYIKYFYTEQEYYSKVEEYINLYEFQKNSTYILGKDLEEFLEEYITNKQ | -1.61 |
| HMDEWDDGDKPKLKITLYADDDYYFASGFSKSSVSLSGSDGTVTSVSRSSSDTLIVYVTLDALD | 0.033 |
| HMDEYILTLDEVKELLKSKDYDDLKNVLKWSNKFQKDTIIQTAISEKVSDANVINIIKEITGQDITSLIV | -0.0278 |
| HMDEYTREQFVADMEEGRVREVTIHPNSEVPTGYIRVELANGADMKLYVTDIVEAEELVRSYGFDPPVRDV | 0.212 |
| HMDFDFHALGREIKRKRKDKGWTQEYLAQLLDRTPRSIMYMENRGQHPSLNILFKIATLLEISIDQFFF | -0.114 |
| HMDFDQELFDKIVEATMDEARAAMDTDDKNVREERWNKLIEHWHELFLEDYPEMDKYLEEITYKFQKNPAT | -0.662 |

| Sequence | soluble fraction (log2) |
| --- | --- |
| HMDFEVGTVKWFNTKKGYGFITRDQGEDIFVHFRNIKGQGRRSLSDGERVSFVVTHGDKGLQADQVSP | -1.25 |
| HMDFFTAAPEEDEIGKRIDVYIAEYKEELSRSRVQKLIENGLVTVNGKAVKSNYKLRKGDILEVEIPDPE | -0.0998 |
| HMDFGPDSAAPLADGSAPEGFDVKGNADSMLYHEPDGRWYDATVAEVWFRTAEAAQAAGFTKAGS | -0.119 |
| HMDFNNQLKRIRESNGLTQEQLAKILNVSRQSISSWEVGRNFPDLEMIVIISKEFNISLDQLIMG | -3.02 |
| HMDFQTDVFISRFAELKKESGETNKDLQDVFELSLSALINYQTGKRIPDIAFLHKLAQHFGVSADYLLGLS | -0.277 |
| HMDFRQALNTSADSDANKVALLESIVKGKYVSSTVNLLRRVITLRRGRSIDATLAAYSHYVSIR | 0.155 |
| HMDFSVTIKGTSFPVMVSLKKMKQVRLKVFPSGEIKLSAPVGTPEKWIVEYLNDKMSWIEEKMDLFVQ | -1.26 |
| HMDFTMSEIQTAMAALPRGYRTVVQLYLVDGYSHKEIAEMLGVDVNTSKSQLSRGRKQLQAFLAAMS | -0.152 |
| HMDFYIVLGVDRAASVSDVKRAYRRLARKYHPDINPGDREAEAFFLRVTEAYETLIDPDRRQDYDVNG | -1.06 |
| HMDFYPARVKWFNKSKGFGFANIFKSNDDIFLHIETLKRSGLSDLETGEAIVLTVTEGPRGKMADTILTWD | -0.531 |
| HMDGDFGMNLDWQPSEHFPTLARQAGIPADHITAEAIAEFRSYWIGQGKAMTQYQWDHKLLTNLKATKTR | -1.19 |
| HMDGEAQTYVEYGKWFPADLPLEAVRQLADGVPVTKELVAALNPRRSEWEEIKAGLDKIGYPNELL | -0.0206 |
| HMDGEITLYKVVGYIKASDFDDKKNGFVIADDYITKRQAEDTMYEWKRKKTYPYLEIKEYKGKDPYK | 0.255 |
| HMDGLAEQLFNILREELESGDYKPGQKLMSESALAQKYGVSRLTVRAAIARLSALDYVETRNGEGSFVKKR | -1.78 |
| HMDGLDFIINENGKIANINEEGELLAKGENIMLGYYKDSISTNNTINNGWLHTGDIAKIDNDGFIYL | -0.0909 |
| HMDGMNEELYQKFFALVGNPDEGKRISQAKAAQALGYSSAVVSAYKNRTYNGNIKAFEDAVQAWLKREERR | 0.17 |
| HMDGPELYESMKAIVPDQLDRTIFLTGGAYTPRAQEFLARVPNQQMEKPFEFEALRSLLARLT | 0.128 |
| HMDGTEVTTEPPGAQVEYEGKQFGPTPARIPGLVAGKSLHITLPGYLEVKPKIKAVPKDGEPLSFTLTAI | -0.0613 |
| HMDGVEVVTKPAGAQIEFAGKSYGPSPVHIPGLVAGSQLILRLPGFQAATVRLRTAPDKSKALEYTLQPA | -0.278 |
